According to the RNAGym collection of RNA variant scans (doi:10.1073/pnas.2313332121):
Fewer inactive variants are shown than the library holds.

B1: TPR 5TU (parent)
chain: GGAUCUUCUCGAUCUAACAAAAAAGACAAAUCUGCCACAAAGCUUGAGAGCAUCUUCGGAUGCAGAGGCGGCAGCCUUCGGUGGCGCGAUAGCGCCAACGUUCUCAACUAUGACACGCAAAACGCGUGCUCCGUUGAAUGGAGUUUAUCAUG

Variants of: B1
Assay: polymerase ribozyme fitness, log enrichment relative to wild type (log ratio); higher = more active; in vitro selection for triplet polymerase activity
Method in brief: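 PCR was used to build mutant libraries for each subunit of a heterodimeric triplet polymerase ribozyme, which were then transcribed. A single in vitro selection round, in triplicate, used a frozen incubation at −7 °C and recovered extended constructs by gel excision, streptavidin beads and RT-PCR. Fitness is the logarithm of genotype enrichment relative to wild-type enrichment, averaged over replicates with inverse-variance weights. The logarithm is base 2, and after Illumina sequencing only genotypes with ≥10 input reads and ≥1 read per output were kept.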

| Variant | polymerase ribozyme fitness (log ratio) |
| --- | --- |
| GGAUCUUCGCGAUCUAACAAUAAGGACAAAUCUGCCACAAAGCUUGAGAGCAUCUUCGGAUGCAGAGGCGGUAGCCUUCGGUGGCGCGAUAGCGCCAACGUUCUCAACUAUGACACGCAAAACGCGUGCUCCGUUGAAUGGAGUUUCUCAUG | ≤ -4.2 |
| GGAUCUUCCCGAUCUAACAAAAAAGACAAAUCUGCCACAAAGCUUGAGAGCAUCUUCGGAUGCAGAGGCGGCAGCCUUCGGUGGUGCGAUAGCGCCAACGUUCUCAACUAUGACACGCAAAACGCGUGCUCCGUUGAAUGGAGUUUAUCAUG | -3.24 |
| GGAUCUUCGCGAUCUAACAAAAAAGACAAAUCUGCCACAAAGCUUGAGAGCAUCUUCAGAUGCAGAGGCGGCAGUCUUCGGUUGCGCGAUAGCGACAACGUUCUCAACUAUGACACGCAAAACGCGUGCUACGUUGAAUGGAGUUUAUCAUG | ≤ -4.2 |
| GGAUCUUCCCGAACAAACAAAAAAGACAAAUCUGCCACAAAGCUUGAGAGCAUCUUCGGAUGCAGAGGCGGCAGCUUUCGGUGGCUCGAUAGCGCCAACGUUCUCAACUAUGACACGCAAAACGCGUGCUCCGUUGAAUGGAGUUUAUCAUG | -4.11 |
| GGAUCUUCGCGAUCUAACAAAAAAGACAAAUCUGCCACAAAGCUUGAGAGCAUCUUCGGAUGCAGAGGCGGCAGCCUUCGGUGGCGCGAUAGCGCCAACGUUAUCAACUAUGACACGCAAAACGCGUGCUCCGUUGAAUGGAGUUUAUCAUG | -3.73 |
| GGAUCUUCCCGAUCUAACAAAAAAGACAAAUCUGCCACAAAGCUUGAGAGCAUCUUCCGAUGCAGAGGCGGCAGCCUUCGGUGGCGCGAUGGCGCCAACGUUCUGAACUGUGACACGCAAAACGCGUGCUCCGUUGAAUGGAGUUUAUCAUG | ≤ -4.2 |
| GGAUCUUCCCGAUUUAACAAAAAAGACAAAUCUGCCACAAAGCUUGAGAGCAUCUUGGGAUGCAGAGGCGGCAGCCUUCGGUGGCGCGAUAGGGCCAACGUUCUCAACUAUGACACGCAAAACGCGUGCUCCGUUGAAUUGAGUUUAUCAUG | ≤ -4.2 |
| GGAUCUUCGCGAUCUAACAAAAAAGACAAAUCUGCCACAAAGCUUGGGAGCAUCUUCGGAUGCAGAGGCGGCAGCCUUCGGUGGCGCGAUAGCGCCAACGUUCUCAACUAUGACACGCAAAACGCGUGCUCCGUUGAAUGGAGUUUAUCAUG | -3.86 |
| GGAUCUUCGCGAUCUAGCAAAAAAGACAAAUCUGCCACAAGGCUUGAGAGCAACUUCGGAUGCAGAGGCGGCAGCCGUCGGUGUCGCGAUAGCGCCAACGUUCUCAACUAUGACAAGCAAAACGCGUGCUCCGUUGAAUGAAGUUUGUCAUG | ≤ -4.2 |
| GGAUCUUCGCGAUCUAACAAAAAAGACAAAUCUGCCACAAAGCUUGAGAGCAUCUUCGGAUGCAGAGGCGGCAGCCUUCGGUGGCGCGAUAGCGCUGACGUUGUCAACUAUGACUCGCAAAACGCGAGCUCCGUUGAAUGGAGUUUAUCAUG | ≤ -4.2 |
| GGAUCUUCGCGAUCUAACAAAAAAGACAAAUCUGCCACAAAGCUUGAGAGCAUCUUCGGAUGCAGAGGCGGCAGCCUUCGGUGGUGCGAUAUCGCCAACGUUCUCAACUAUGACACGCAAAACGCGUGCUCCGUUGAAUGGAGUAUAUCAUG | ≤ -4.2 |
| GGAUCUUCGCGAUCUAAUAAAAAAGACAAAUCUGCCACGAAGCUUGAGCGAAUCUUCGGAUGCAGAGGCGGCAGCCUUCGGUGGCGCGAUAGCUCCAACGUUCUCGACUAUGACACGCAAAACGCGUGCUCCGUUGAAUGGAGUUUAUCAUG | ≤ -4.2 |
| GGAUCUUCCCGAUCUAAGAAGAAAGACAUAUCUGCCACAAAGCUUGAGAGCAUCUUCGGAUGCAGAGGCGGCAGCCUUCGGUGGCGGGAUAGCGCCAACGUUCUCAACUAUGACACGCAAAACGCGUGCUCCGUUGAAUGGAGUUUAUCAUG | ≤ -4.2 |
| GGAUCUUCGCGAUCUAACAAAAAAGACAAAUCUGCCACAAAGCUUGAGAGCAUCUUCGCAUGCAGAGGCGGCAGCCUUCGGUGGCGCGAUACCGCCAACGUUCUCAGCUAUGACGCGCAAAACGCGUGCUCCGUUGAAUGGAGUUUAUCAUG | ≤ -4.2 |
| GGAUCUUCGCGAUCUAACAAAAAAGAGAAAUCUGCCACAAAGCUUGAGAGCAUCAUAGAAUGCAGAGGCGGCAGCCUUCGGUGGCGCGAUAGCGCCAACGUUCUCAACUAUGACACGCAAAACGCGUGCUCCGUUGAAUGGAGUUUAUCAUG | ≤ -4.2 |
| GGAUCUUCGCGAUCUAACAAAAAAGACAUAUCUGCCACAAAGCUGGAGAGCAUCUUCGGAUGCAGAGGCGGCAGACUUCGGUGGCGCUAUAGCGCAAACGUUCUCAACUAUGACACGCAAAACGCGUGCUCCGUUGAAUGAAGUUUAUCAUG | ≤ -4.2 |
| GGAUCUUCGCGAUCUAGCAAAAAAGACAAAUCUGCCACAAAGCUUGAGAGCUUCUUCGGAUGCAGAGGCGGCAGGCUUCGGUGACGCGAUAGCGCCAACGUUCUUAACUAUGACACGCAAAACGCGUGCUCCGUUGAAUGGAGUUUAUCAUG | ≤ -4.2 |
| GGAUCUUCGCGAUCUAACAAUAAAGACAAAUCUGUCACAAAGCUUGAGAGCAUCAUCGGAUGCAGAGGCGGCAGCCUUCGGUGGCGCGAUAGCGCCAACGUUCUCAAUUAUGACACGUAAAACGCGUACUCCAUUGAAUGGAGUUUAUCAUG | ≤ -4.2 |
| GGAUCUUCCCGAUCUAACAAAAAAGACAAAUCUGCCACAAAGCUUGAGAGCAUCUUCGGAUGCAGAGGCGGCAGCCUUCGGUGGCGCGAUAGAGCCAACGUUCUCAACUAUGACACGCAAAACGCGUGCUCCGUUGAAUGGAGUUUAUCAUG | ≤ -4.2 |
